Laboratory results published in patent US20090281042A1 (priority 2005, published 2009).
Like-named read-outs stand apart in the source and are kept apart here. Ends that are not written are not given here.

Legend:
HCV NS3 protease [1] = target: T1, HCV NS3 protease (Hepatitis C virus genotype 1b, UniProt P26663); details: mean ± S.D., cited from earlier work
T1 construct: In the case of HCV NS3 protease the site is NS5A/B

HCV NS3 protease [2] = target: T1, HCV NS3 protease; details: cited from earlier work
HRV 3C protease = HRV 3C protease (Human rhinovirus 16, UniProt Q82122); format: biochemical, HRV 16
SARS 3CL protease = SARS 3CL protease (Severe acute respiratory syndrome coronavirus, UniProt P0C6X7)
E. coli lysate = format: biochemical; details: FIG. 5
[3] = Table 7, NS3 + Pep4A, modified decamer peptides vs wild type DEMEECASHL
[4] = Table 7, NS3 alone, modified decamer peptides vs wild type DEMEECASHL
[5] = NS3 + Pep4A, P6 and P1′-modified NS4A/NS4B decamer peptides
[6] = NS3 alone, P6 and P1′-modified NS4A/NS4B decamer peptides

T1 sequence (P26663 1027-1208, other chains not shown): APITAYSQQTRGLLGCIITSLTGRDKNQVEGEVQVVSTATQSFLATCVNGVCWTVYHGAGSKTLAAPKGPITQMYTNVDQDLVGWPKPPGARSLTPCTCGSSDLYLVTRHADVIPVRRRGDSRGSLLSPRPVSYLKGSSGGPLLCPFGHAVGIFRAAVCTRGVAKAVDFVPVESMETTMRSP

## AEMEECASHL
HCV NS3 protease [1]; [3]
  Km: 55 ± 11 µM
  kcat: 0.015 ± 0.001 s⁻¹
HCV NS3 protease [1]; [4]
  Km: 125 ± 28 µM
  kcat: 0.00167 ± 0.00033 s⁻¹

## DEMEECASAL
HCV NS3 protease [1]; [3]
  Km: 130 ± 15 µM
  kcat: 0.0602 ± 0.016 s⁻¹
HCV NS3 protease [1]; [4]
  Km: 231 ± 39 µM
  kcat: 0.0142 ± 0.00267 s⁻¹

## ERLVLCSñSY (not fully specified (C-terminus); printed as ERLVLCSñSY; also: code ñ has no stated meaning) [Pep B19s, substrate peptide for HCV NS3 protease based on selected cleavage site]
HCV NS3 protease [2]; absence (−) of 150 mM Nacl
  Keat: 30 min⁻¹
  Km: 11 µM
HCV NS3 protease [2]; presence (+) of 150 mM Nacl
  Keat: 49 min⁻¹
  Km: 12 µM

## DEMEECSSHL
HCV NS3 protease [1]; [5]
  Km: 246 ± 54 µM
  kcat: 0.0277 ± 0.00367 s⁻¹
HCV NS3 protease [1]; [6]
  Km: 273 ± 21 µM
  kcat: 0.00533 ± 0.00017 s⁻¹

## EQVVRCSñSY (not fully specified (C-terminus); printed as EQVVRCSñSY; also: code ñ has no stated meaning) [Pep B8s, substrate peptide for HCV NS3 protease based on selected cleavage site]
HCV NS3 protease [2]; absence (−) of 150 mM Nacl
  Keat: 3 min⁻¹
  Km: 7 µM
HCV NS3 protease [2]; presence (+) of 150 mM Nacl
  Keat: 10.5 min⁻¹
  Km: 21 µM

## O=S(=O)(F)Cc1ccccc1 [PMSF]
HeLa lysate; Pep1 as substrate
  effect of protease inhibitor on cleavage of Pep1: relative insensitivity

## BTLEFCSñSY [Pep B5s]
HCV NS3 protease [2]; absence (−) of 150 mM Nacl
  Keat: 23 min⁻¹
  Km: 3.5 µM
HCV NS3 protease [2]; presence (+) of 150 mM Nacl
  Keat: 36 min⁻¹
  Km: 27 µM

## NEMEECASHL
HCV NS3 protease [1]; [5]
  Km: 188 ± 44 µM
  kcat: 0.0483 ± 0.00767 s⁻¹
HCV NS3 protease [1]; [6]
  Km: 630 ± 62 µM
  kcat: 0.00617 ± 0.00417 s⁻¹

## DEMAECASHL
HCV NS3 protease [1]; [3]
  Km: 190 ± 35 µM
  kcat: 0.0468 ± 0.011 s⁻¹
HCV NS3 protease [1]; [4]
  Km: 790 ± 205 µM
  kcat: 0.0055 ± 0.001 s⁻¹

## Pep1: designed fluorescent (EDANS/DABCYL) 3C protease substrate based on multiple HRV 3C cleavage sites and bioinformatics, Table 14 (LEALFQGPDSQ; not fully specified)
HRV 3C protease
  duration of linear kinetics: at least 3 minutes
  effect of nasal wash on substrate cleavage by recombinant HRV 3C: absence of effect
  lower limit of protease detection: 0.5 to 1.0 nM
  specificity of substrate for cleavage with HRV 3C protease: absolute specificity
  substrate cleavage compared to the native cleavage site (Ori 2): superior substrate cleavage
  substrate exhibiting the most rapid kinetics out of Pep 1-Pep 9: most rapid kinetics
SARS 3CL protease
  cleavage reaction with SARS 3CL lysate: absence of any detectable cleavage reaction
E. coli lysate
  cleavage reaction with E. coli lysate: absence of any detectable cleavage reaction

## DEMEECASHL [NS4A/4Bs]
HCV NS3 protease [2]; absence (−) of 150 mM Nacl
  Keat: 4 min⁻¹
  Km: 10 µM
HCV NS3 protease [2]; presence (+) of 150 mM Nacl
  Keat: 4 min⁻¹
  Km: 500 µM

## EEMEECASHL
HCV NS3 protease [1]; [5]
  Km: 166 ± 15 µM
  kcat: 0.0482 ± 0.00333 s⁻¹
HCV NS3 protease [1]; [6]
  Km: 254 ± 44 µM
  kcat: 0.0107 ± 0.00067 s⁻¹

## DEAEECASHL
HCV NS3 protease [1]; [3]
  Km: 124 ± 22 µM
  kcat: 0.0355 ± 0.005 s⁻¹
HCV NS3 protease [1]; [4]
  Km: 409 ± 24 µM
  kcat: 0.005 ± 0.00033 s⁻¹

## DEMEECASHL
HCV NS3 protease [1]; [5]
  Km: 42.8 ± 4.1 µM
  kcat: 0.0233 ± 0.0012 s⁻¹
HCV NS3 protease [1]; [6]
  Km: 105 ± 20 µM
  kcat: 0.00433 ± 0.0005 s⁻¹
HCV NS3 protease [1]; [3]
  Km: 42.8 ± 4.1 µM
  kcat: 0.0233 ± 0.0012 s⁻¹
HCV NS3 protease [1]; [4]
  Km: 105 ± 20 µM
  kcat: 0.00433 ± 0.0005 s⁻¹

## DAMEECASHL
HCV NS3 protease [1]; [3]
  Km: 143 ± 27 µM
  kcat: 0.0455 ± 0.014 s⁻¹
HCV NS3 protease [1]; [4]
  Km: 569 ± 150 µM
  kcat: 0.0143 ± 0.00767 s⁻¹

## DEMEECAAHL
HCV NS3 protease [1]; [3]
  Km: 144 ± 5.6 µM
  kcat: 0.0513 ± 0.0025 s⁻¹
HCV NS3 protease [1]; [4]
  Km: 191 ± 11 µM
  kcat: 0.0112 ± 0.00067 s⁻¹

## EDVVaCSñSY [B14s(NS5A/B)]
HCV NS3 protease [2]; absence (−) of 150 mM Nacl
  Keat: 34 min⁻¹
  Km: 4 µM
HCV NS3 protease [2]; presence (+) of 150 mM Nacl
  Keat: 47 min⁻¹
  Km: 10 µM

## DEMEECASHA
HCV NS3 protease [1]; [3]
  Km: 219 ± 10 µM
  kcat: 0.05 ± 0.0157 s⁻¹
HCV NS3 protease [1]; [4]
  Km: 260 ± 37 µM
  kcat: 0.00967 ± 0.002 s⁻¹

## DEMEECFSHL
HCV NS3 protease [1]; [5]
  Km: 156 ± 54 µM
  kcat: 0.00333 ± 0.00033 s⁻¹

## O=C(O)CN(CCOCCOCCN(CC(=O)O)CC(=O)O)CC(=O)O [EGTA]
HeLa lysate; Pep1 as substrate
  effect of protease inhibitor on cleavage of Pep1: partially inhibited

## DEMEACASHL
HCV NS3 protease [1]; [3]
  Km: 148 ± 44 µM
  kcat: 0.0432 ± 0.01 s⁻¹
HCV NS3 protease [1]; [4]
  Km: 171 ± 23 µM
  kcat: 0.00433 ± 0.00017 s⁻¹

## DEMEEAASHL
HCV NS3 protease [1]; [3]
  kcat: not cleaved
HCV NS3 protease [1]; [4]
  kcat: not cleaved

## ENSVPCSñSY (not fully specified (C-terminus); printed as ENSVPCSñSY; also: code ñ has no stated meaning) [Pep B28s, substrate peptide for HCV NS3 protease based on selected cleavage site]
HCV NS3 protease [2]; absence (−) of 150 mM Nacl
  Keat: 4 min⁻¹
  Km: 15 µM
HCV NS3 protease [2]; presence (+) of 150 mM Nacl
  Keat: 14.5 min⁻¹
  Km: 56 µM

## O=C(O)CN(CCN(CC(=O)O)CC(=O)O)CC(=O)O [EDTA]
HeLa lysate
  effect of protease inhibitor on cleavage of Pep1: partially inhibited

## Aprotinin
HeLa lysate; Pep1 as substrate
  effect of protease inhibitor on cleavage of Pep1: relative insensitivity

## ERVVLCSñSY (not fully specified (C-terminus); printed as ERVVLCSñSY; also: code ñ has no stated meaning) [Pep B15s, substrate peptide for HCV NS3 protease based on selected cleavage site]
HCV NS3 protease [2]; absence (−) of 150 mM Nacl
  Keat: 30 min⁻¹
  Km: 30 µM
HCV NS3 protease [2]; presence (+) of 150 mM Nacl
  Keat: 44.5 min⁻¹
  Km: 13 µM

## KEMEECASHL
HCV NS3 protease [1]; [5]
  Km: 449 ± 91 µM
  kcat: 0.0447 ± 0.00033 s⁻¹
HCV NS3 protease [1]; [6]
  Km: 1050 ± 430 µM
  kcat: 0.00433 ± 0.00167 s⁻¹
